41 sequences from the nanobody polyreactivity screen of Harvey et al. (2022) can be followed below.

This series in a line: yeast display, Sf9 membrane polyspecificity reagent, FACS + sequencing; frameworks hold sequencing errors. Summed up:
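Galactose induction of a Saccharomyces cerevisiae BJ5465 synthetic nanobody display library ran 36–48 hours. The cells were then stained for 1 hour at 4 °C with 10% biotinylated, detergent-solubilized Sf9 membrane reagent, pulled down on streptavidin microbeads and FACS-sorted into low and high (top ~1%) gates on expression and reagent-binding fluorescence. Labels for polyreactivity follow the gate of origin.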
“QVQLVESGGGLVQSGGTLRLSWAASGFSFAGNAMGWYRLAPGKERELVAVISKRGGPTYYADSVKGRFTFSRDNAKNTVDLQMNSLKPEDTAVYYCAADSGGPGYAMDYWGQGTEVTVSS”: the “polyreactivity (PSR sort gate)” value is listed as “high polyreactivity”.
The result for “QVQLVESGGGLVQSVGSLRLSCAASGRSFWINTMGWYRQAPGKERELLAAITSGGSTKYADSVKGRFTISRDNAKNTVYFQMNSLKPEDCAVYYCARRFRPNDVWPSHRGYGYWGQGTQVSVSS” reads “low polyreactivity”; that for “QVQLVESGGGLVQTGGSLRLSCAASGSIYGEYAMGWYRQSPGKEREFVADITWSDGSTYYADSVKGRFTISRDNAKNTVYLQMNSLKPEDTAVYYCAADSVLDRQVLYLWPWYLGDYWGQGTQVTVSS”, “low polyreactivity”; that for “QVQLVESGGGLVQTGGSLRLSCAASGSTFYYYAMGWYRQAPGKERELVAGISWGGGSTYYADSVKGRFTISRDNAKNTVYLQMNSLKPEDTAVYYCNALNPNSYDYWGQGTLVTVSS”, “low polyreactivity”.
For “QVQLVESGGGLVQVGGSLRLSCAASGFTFYDYAMGWYRQAPGKERELVAAISRGGSTYYADSVKGRFTISRDNAKNTVYLQINSLIPEDTAVYYCNARPTRIYHGMGYWGQGTQVTVSS”, the “polyreactivity (PSR sort gate)” value is on record as “low polyreactivity”.
Take “QVQLVESGGGLVQVGGSLRLSCAASGRTFWWYAMGWYRQAPGKERELVAAISRGSTNYADSVKGRFTISRDNAKNTVYLQMNSLKPEDTAVYYCNAVSLYQSHDYDYWGQGTQVTVSS”: the “polyreactivity (PSR sort gate)” value is “low polyreactivity”.
The result for “QVQLVESGGGLVRAGGSLRLSCAASGFIFTSYVMGWYRQAPGKERELVAAITSGNSTYYADSVKGRFTISRDNAKNTVYLQMNSLKPEDTAVYYCTADSYHTYYYWYDYWGLGTQVTVSS” reads “low polyreactivity”; that for “QVQLVESGGGLVRAGGSLRLSCAASGRIFHGNAMGWYRQAPGKERELVAAITWGGTRTYYADSVKGRFTISRDNAKNTVYLQMNSLKPEDTAVYYCAKAGTGFYNSWWEDYWGQGTQVTVSS”, “low polyreactivity”; that for “QVQLVESGGGRVQAGGSLRLSCAASGSIFTTYTMGWDRQAPGKESEWVAAITSSSGSTYYADSVKGRFTISRDNAKNTVYLQMNSLKPEDTAVYYCAARGYFDFSRYDSWGHGTQVTVSS”, “low polyreactivity”.
Under “QVQLVESGGGRVQAGGTHRLRSAASGFTFRQYAMGWYRPAPGKERELLAAISRSGSRTYYADSVKRRFTISRDNAKHTVYLQMNCLKPEDTAVYYCYAVFSTFTGEYYWGHGTQVTVSS” stands “high polyreactivity”; under “QVQLVESGGGSVQAGGSLRLSCAASGFNFVYYAMGWYRQAPGKERELVAAITWSGGSTYADSVKGRFTISRDNAKNTVYLQMNSLKPEDTAVYYCAAEYDISSGYGFDFDYWGQGTQVTVSS”, “low polyreactivity”; under “QVQLVESGGGVIQAGGSLRLSCAASGRTFYRNTMGWYRQAPGKERELVASISRGGRTNYADSVKGRFTISRDNAKNTVYLQMNSLKREDTAVYYCAKQTSYGGIIRYYASCYGYWGQGTQVTVSS”, “high polyreactivity”.
The result for “QVQLVESGGGVLQAGGSLRLSCAASGRIFYRYPMGWYRKAPGKVRELVAAISGSVGSTYADSVKGRLTISRDNAKNTVYLQMKSMKPEDTAVYYFDRETYRRYGAYDYWGQGTQVTVSS” reads “low polyreactivity”.
Turning to “QVQLVESGGGVQAGCSLRLSCAASGRTFVPYGMGWYRQAPGKERELVAAISSIGDSTSYADSVKGRFTISRDNAKNTVYLQMNSLKPEDSAVYYCADVTWYDEYDSWGKGTQVTVSS”, the “polyreactivity (PSR sort gate)” value is listed as “low polyreactivity”.
The result for “QVQLVESGGGVVHAGGSLRLSCAASGLIFRYYAVGGYRPAPGKERELVARISTRGGSTYYADSVKGRFTISRDNAKNTVYLPMNSLKPEDTAVYYCAAVNGLYYHKYGYYWGQGTQVTVSS” reads “high polyreactivity”; that for “QVQLVESGGGVVQAGGRLRLSCAASGFILGYNDMGWYRPAPGKERELVAAISSSGGSTYYADSVKGRFTISRDNAKNTVYLQMNSLKPEDTAVYYCGLPYQTSYGEYDYWGQGTQVTVSS”, “low polyreactivity”.
“QVQLVESGGGVVQAGGRLRLSCSASGRTFPWYAMGWSRQEPGKEREVVAAITQSGGSTYYADSVKGRFTISRDNANNTVYLQMNSLKPEDTAGFYCAVASVNTVFYGQDHYYYDYGYWGQGTHVTVSS”: the “polyreactivity (PSR sort gate)” value is listed as “low polyreactivity”.
Under “QVQLVESGGGVVQAGGSLRLICAATGSIFGYAMGWYRQAPGKERELVGAISFSGVSTYYADSVMGRFTISRDNAKNTVYLEMNSLKPEDTAVYYSNAYSDGDEDYWGQGTQGTVSS” stands “low polyreactivity”.
Under “QVQLVESGGGVVQAGGSLRLRCAASGRTFGQNVMGWYRQAPGKERELVAAISWSGARTYYADSVKGRFTISRDNVKNTVYLQMNSLNPEDTAVYYCNAPPYAYYGMYYWGQGTQVTVSS” stands “high polyreactivity”; under “QVQLVESGGGVVQAGGSLRLSCAASGFIFNAYAMGSYRQAPGNERELVAAINTSGGRTNYADSVKGRFTISRDNAKNTVYLQMNSLKPEDTAVYYCAARNRFGGNYWGQGTQVTVSS”, “high polyreactivity”.
Under “QVQLVESGGGVVQAGGSLRLSCAASGFISKLYAMGWYRQAPGKEREMVAAISSSGTSTYYADSVKGRFTISRDHANNTVYLQMNSLKPEDTAVYYCNARWYVRAYEYDYWGQGTQVTVSS” stands “low polyreactivity”; under “QVQLVESGGGVVQAGGSLRLSCAASGFTFGVYAMRGYRQAPGKERELVAAISSRGGSTYYADSVKGRFTISRDNPTNPVYLQMNSLKPEDTAVYYCAKRLGNTVGKDDYWGQGTQVTVSS”, “low polyreactivity”; under “QVQLVESGGGVVQAGGSLRLSCAASGFTYVYNAIGWYRQAPGKDMELVATISWRGGSTYADSVKGRFTISRDNAKNTVYLQINSRKPEDTAIYYCNAASRVSQAMDYWGQGTQVTVSS”, “high polyreactivity”.
For “QVQLVESGGGVVQAGGSLRLSCAASGITFGWDAMGWYRQAPGKERELVASISSSGSTNYADSVKGRFTISRDNAKNTVYLQMNSLKPEDTAVYYCNKDYLLRHYYIYVIEGDYWGQGTQVTVSS”, the “polyreactivity (PSR sort gate)” value is reported as “low polyreactivity”.
The result for “QVQLVESGGGVVQAGGSLRLSCAASGITFRSYLMGWYRQAPGKEREFVAAITGSAGSTYYADSVKGRFTISRDNAKTTVYLQINSLKAEDTAVYYCAARVRYVNPKYYYLGQGTQVTVSS” reads “high polyreactivity”.
The result for “QVQLVESGGGVVQAGGSLRLSCAASGITIEANAMGLYRQAPGKERELVAAIDRSGGSKYYADSVKGRFTISRDNAKNTVYLQMNSLKPEDTAVYYCAADGRASVGGLGDDYWGQGTQVTVSS” reads “low polyreactivity”; that for “QVQLVESGGGVVQAGGSLRLSCAASGRIFDLYAMGWYRQAPGKERELVATISGSGGSTYYADSVKGRFTISRDNAKNTVYLQMNSLKPEDTAVYYCAAVSVSSWYDYWGQGTQVTVSS”, “low polyreactivity”; that for “QVQLVESGGGVVQAGGSLRLSCAASGRIFGPNDMGWYRQAPGKGRELVAAITDSGDITYYADSVKGRFTISRDTAKNTVNVQMNCLKPEDTAVNYFAADHTYENEYRGQGTQVTVSS”, “low polyreactivity”.
Under “QVQLVESGGGVVQAGGSLRLSCAASGRIFYGNAMGWYRQAPGKERELVAAISSGTSTNYADSVKGRFTISRDNAKNTVYLQMTSLKPEDTAVYYCAAGSYSRYLYSLYFDFDYWGQGTQVTVSS” stands “low polyreactivity”; under “QVQLVESGGGVVQAGGSLRLSCAASGSIFFLYAMGWSRQATGKEREFVAAITGTADSTYYADSVKGRFTISRDDAKNTVYLQMNSLKPEDTAVYYCATDYWSSVKLDDYWGQGTQVTVSS”, “low polyreactivity”.
Take “QVQLVESGGGVVQAGGSLRLSCAASGSTFGRYAMGWYRQAPGKERELVAAISWSGGSTYYADSVKGRFTISRDNAKNTVYLQMNSLKPEDTAVYYCNKYWRGSSSRDDYWGQGTQVTLSS”: the “polyreactivity (PSR sort gate)” value was “high polyreactivity”.
Under “QVQLVESGGGVVQAGGSLRLSCAASGSTFGYYTMGWNRQAPGKERELVAAISRSGCRTYYADSVKGRFTISRDNAMNAVYLHMTSLKPDYTAVYYCNADGTRYAGDDYWGQGSQVTVSS” stands “high polyreactivity”; under “QVQLVESGGGVVQAGGSLRLSCAASGSTSYFNVIGWYRPAPGKERELVAAISWSGGSTYADSVKGRFTISRDNAKNTVYLQMNSLKREDTAVYYCNKDYGYVQLRFSGPGYYWGQGTQVTVSS”, “low polyreactivity”.
The result for “QVQLVESGGGVVQAGGSLRLSCAASGTIFYENAMGWYRQAPGKEREFVATIDLIGDRTYYADSVKGRFTISRDNAKNTVYLQMNSLKPEDTAVYYCAAERVGVFFRYDYWGQGTQVTVSS” reads “low polyreactivity”.
The result for “QVQLVESGGGVVQAGGSLRLSCAATGSRYWDYPMGWYRQAPGKERELVAAISTSGGSTYYADSVKGRFTISRDNAKNTVYLQMNSLNPEDTAVYYCATRVRTGSVGNFNYWGQGTQVTVSS” reads “high polyreactivity”; that for “QVQLVESGGGVVQAGGSLRLSCAAYGSIFEANDMGWYRQAPGKERELVAAIDANTGSTYYADSVKGRFTISLDNAKNTVYLQMNSLKPEVTAVYYCNAQVYLQTAYDYWGQGTQVSVSS”, “low polyreactivity”; that for “QVQLVESGGGVVQAGGSLRLSCASSGSIFGPYVMGWYRQAPGKERELVAAISKSGGSTYYADSVKGRFTISRDNAKNTVFLLMNSLKPEDTAVYYCATDYLGGGKRYYYWGQGTQVTVSS”, “high polyreactivity”.
In the case of “QVQLVESGGGVVQAGGSLRLTCAASGLTFNIYSLGWYRQAPGKEREFDATISSSGGGTYYADSVKGRFSISRDHAKNTVYVQLHSLPPEDTAVYYCARDSPDHVTYLHYHYDYWGQGTQVTVSS”, the “polyreactivity (PSR sort gate)” value is on record as “low polyreactivity”.
Under “QVQLVESGGGYVQAGGSLRLSCAASGSIFRGYAMGWSRQAPGKEWELVATIDSSAGSTYYADSVKGRYTISRDNAKNTVYLQMNSLKPEDTAVFYCATDPYGYYYSGYDYWGQGTQVTVSW” stands “low polyreactivity”; under “QVQLVESGGGYVQAGGSLRLSCAASGSTFKGYAMGLYRQAPGKEMELVAAITWIGGSTTYADSVKGRFTISCDNAKNTVYLQMNSLKPEDTAVYYCAADNFWYFLSATEDYWGQGTQVTVSS”, “low polyreactivity”.
Under “QVQLVESGGPLVKSRGSLRLICAASGRTYCEYSMGWYRQAPGKERELVADITNGSRTYYADSVKGRFTISRDNAKNTVYLQMNSLKPEDTSVYYCAADWWKEVDYWGQGTEVTVSS” stands “low polyreactivity”.
